Data as given in paper PMC5940917.

Columns and labels:
[1] = target: rat ASIC1a/2a heteromeric channel stably expressed in CHO cells (rat) (UniProt P55926)
[2] = target: rat ASIC1a/2a heteromeric channel stably expressed in CHO cells (rat) (UniProt P55926); remark: listed apart in the source
[3] = target: rat ASIC1a/2a heteromeric channel stably expressed in CHO cells (rat) (UniProt P55926); remark: listed apart in the source

Sequence of UniProt P55926 (P55926 whole entry, chain 1 of 2): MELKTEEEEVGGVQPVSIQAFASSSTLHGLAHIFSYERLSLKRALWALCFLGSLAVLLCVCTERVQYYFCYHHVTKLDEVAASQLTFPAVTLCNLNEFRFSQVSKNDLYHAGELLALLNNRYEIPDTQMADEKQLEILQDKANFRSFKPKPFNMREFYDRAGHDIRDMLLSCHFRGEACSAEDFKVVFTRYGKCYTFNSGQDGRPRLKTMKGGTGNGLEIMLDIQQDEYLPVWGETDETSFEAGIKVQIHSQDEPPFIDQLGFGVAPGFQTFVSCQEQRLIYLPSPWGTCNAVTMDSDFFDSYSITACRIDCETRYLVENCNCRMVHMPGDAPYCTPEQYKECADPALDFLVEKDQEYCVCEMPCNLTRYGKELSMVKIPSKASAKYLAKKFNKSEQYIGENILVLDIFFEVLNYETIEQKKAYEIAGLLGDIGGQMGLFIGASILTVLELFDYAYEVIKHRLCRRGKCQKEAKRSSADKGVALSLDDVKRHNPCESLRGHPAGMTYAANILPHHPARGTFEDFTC
Sequence of UniProt P55926 (P55926 other isoform, or with tags, fused parts or gaps, chain 2 of 2): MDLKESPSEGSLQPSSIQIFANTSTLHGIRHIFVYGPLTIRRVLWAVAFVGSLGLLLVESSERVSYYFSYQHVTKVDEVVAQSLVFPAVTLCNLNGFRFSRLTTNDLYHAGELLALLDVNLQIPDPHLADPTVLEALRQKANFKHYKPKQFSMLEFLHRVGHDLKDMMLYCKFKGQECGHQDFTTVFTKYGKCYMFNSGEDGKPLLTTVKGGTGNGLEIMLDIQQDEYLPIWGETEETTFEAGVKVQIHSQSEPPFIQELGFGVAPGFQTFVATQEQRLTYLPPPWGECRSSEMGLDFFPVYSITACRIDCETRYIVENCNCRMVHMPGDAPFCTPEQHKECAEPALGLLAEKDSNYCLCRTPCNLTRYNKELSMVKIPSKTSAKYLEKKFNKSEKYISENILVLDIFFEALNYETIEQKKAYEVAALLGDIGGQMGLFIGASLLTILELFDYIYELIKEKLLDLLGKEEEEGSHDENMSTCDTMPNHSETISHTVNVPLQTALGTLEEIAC

Psalmotoxin (PcTx1) (from UniProt P60514 1-40) (peptide)
whole-cell patch clamp on CHO cells: inhibition of pH6.0-induced current at conditioning pH 7.0, 1-300 nM PcTx1 (inhibition incomplete, plateau ~75%) [1]: 0.0029 µM
current clamp on CHO cells: potentiation of pH6.8-induced membrane depolarization at conditioning pH 7.4, 1-300 nM PcTx1 [2]: 0.0561 µM
whole-cell patch clamp on CHO cells: potentiation of pH6.8-induced current at conditioning pH 7.4, 1-300 nM PcTx1 [2]: 0.124 µM
threshold concentration of PcTx1 for potentiation of pH6.8-induced responses at conditioning pH 7.4 (wash-off experiments; CHO cells, rat and mouse cortical neurons) [3]: < 0.01 µM
